Values quoted from earlier work as cited in paper PMC2589311.
Like-named read-outs stand apart in the source and are kept apart here.

Columns and labels:
[1] = biological target: second IL-1 receptor, 68 kDa (RAJI cells) (Homo sapiens) (UniProt P27930)
[2] = biological target: IL-1 receptor (synovial cells) (Homo sapiens) (UniProt P14778)
[3] = biological target: IL-1 receptor (synovial cells) (Homo sapiens) (UniProt P14778); remark: listed apart in the source

Chain of UniProt P14778 (P14778 18-569): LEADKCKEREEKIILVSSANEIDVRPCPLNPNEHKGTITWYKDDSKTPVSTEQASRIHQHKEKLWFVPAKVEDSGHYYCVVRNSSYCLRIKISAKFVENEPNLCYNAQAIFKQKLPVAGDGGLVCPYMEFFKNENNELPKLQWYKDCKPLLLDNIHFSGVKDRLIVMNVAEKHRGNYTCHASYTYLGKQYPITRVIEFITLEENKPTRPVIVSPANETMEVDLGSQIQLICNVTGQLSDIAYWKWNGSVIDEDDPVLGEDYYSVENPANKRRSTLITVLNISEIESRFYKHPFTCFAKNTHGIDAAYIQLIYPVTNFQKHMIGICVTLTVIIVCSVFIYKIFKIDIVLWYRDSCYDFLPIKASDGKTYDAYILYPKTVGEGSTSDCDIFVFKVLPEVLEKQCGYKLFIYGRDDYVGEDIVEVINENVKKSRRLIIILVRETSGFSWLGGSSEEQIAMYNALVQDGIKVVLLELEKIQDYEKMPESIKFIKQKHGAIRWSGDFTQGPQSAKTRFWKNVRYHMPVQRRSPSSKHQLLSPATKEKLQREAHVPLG
Chain of UniProt P27930 (P27930 14-398): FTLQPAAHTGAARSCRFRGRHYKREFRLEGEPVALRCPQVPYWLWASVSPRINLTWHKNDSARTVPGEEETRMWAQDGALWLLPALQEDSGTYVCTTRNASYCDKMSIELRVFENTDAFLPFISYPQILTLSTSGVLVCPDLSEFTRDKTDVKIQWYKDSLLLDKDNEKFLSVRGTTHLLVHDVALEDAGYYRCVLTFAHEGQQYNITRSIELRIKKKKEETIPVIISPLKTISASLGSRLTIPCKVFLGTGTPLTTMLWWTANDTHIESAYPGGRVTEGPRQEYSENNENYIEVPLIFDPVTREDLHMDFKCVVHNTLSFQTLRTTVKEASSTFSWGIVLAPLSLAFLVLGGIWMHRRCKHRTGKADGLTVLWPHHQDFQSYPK

Substance	Kd [1] [nM]	Kd [2] [nM]	Kd [3] [nM]
IL-1beta (from UniProt P01584)	2.2	0.004	
IL-1alpha (from UniProt P01583)			0.066
